Assay results as given in patent publication CN115991785A (SHANGHAI MIAOJU BIOTECHNOLOGY CO LTD; UNIV SHANGHAI JIAOTONG, dated 2023).

How the values were obtained:
[1] = target: T1, MATN3-Fc抗原 (MATN3-Fc antigen) (human, UniProt O15232 29-486, limits assumed); test: SPR (Biacore, CM5 chip, amine coupling, 1:1 binding model)
T1 construct: not shown: Fc part
T1 sequence (looked up): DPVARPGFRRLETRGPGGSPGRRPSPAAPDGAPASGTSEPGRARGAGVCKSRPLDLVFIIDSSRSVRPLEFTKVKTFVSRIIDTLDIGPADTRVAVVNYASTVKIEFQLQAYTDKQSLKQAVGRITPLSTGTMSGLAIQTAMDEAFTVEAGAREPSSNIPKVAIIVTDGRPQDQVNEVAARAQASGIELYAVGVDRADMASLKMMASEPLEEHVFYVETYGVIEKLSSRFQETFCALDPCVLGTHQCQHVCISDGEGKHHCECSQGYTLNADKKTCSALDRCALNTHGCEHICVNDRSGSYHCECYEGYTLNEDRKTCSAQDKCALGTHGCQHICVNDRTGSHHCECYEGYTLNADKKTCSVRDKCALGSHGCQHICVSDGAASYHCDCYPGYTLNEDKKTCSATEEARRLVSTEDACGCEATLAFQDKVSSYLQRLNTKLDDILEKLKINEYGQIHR

[2] = target: CD34-Fc抗原 (CD34-Fc antigen); test: as above
CD34-Fc抗原 (CD34-Fc antigen), sequence (P28906 32-290): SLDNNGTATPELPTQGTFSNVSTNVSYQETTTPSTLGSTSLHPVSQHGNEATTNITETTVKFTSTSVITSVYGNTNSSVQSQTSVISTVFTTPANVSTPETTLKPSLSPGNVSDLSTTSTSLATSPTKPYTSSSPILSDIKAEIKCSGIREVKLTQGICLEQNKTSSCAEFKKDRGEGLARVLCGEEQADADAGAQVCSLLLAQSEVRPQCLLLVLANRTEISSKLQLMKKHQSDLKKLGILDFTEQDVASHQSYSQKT

Kd [1]: 0.00895 nM
Kd [2]: 8.53 nM
B1: CD34×MATN3双特异性抗体 (CD34×MATN3 bispecific antibody, IgG1-scFv form) (bispecific antibody)
chain 1: EIQLQQSGPELMKPGASVKISCKASGYSFTSYYMHWVKQSQGKSLEWIGFIDPFNGGITYNQKFKGKATLTVDRSSSTAYMHLRSLTSEDSAVYYCARCYYNYDDEGRAMDYWGQGTSVTVSS
chain 2: DIQMTQSPSSLSASLGERVSLTCRASQDIGSSLNWLQQGPDGTFKRLIYATSSLDSSVPKRFSGSRSGSDYSLTISSLESEDFVDYYCLQYASSPYTFGGGTKLEIKR
chain 3: EVQLVQSGAEVKKPGASVKVSCKASGGTFSSYAISWVRQAPGQGLEWMGGIIPIFGTANYAQKFQGRVTITADKSTSTAYMELSSLRSEDTAVYYCARGQGYWFDPWGQGTLVTVSS
chain 4: DVQLTQSPSSLSASVGDRVTITCQASQDISNYLNWYQQKPGKAPKLLIYDASNLETGVPSRFSGSGSGTDFTFTISSLQPEDIATYYCQQYDNLPLTFGGGTKLEIKR
